Assay results published in PMC8669218 (Acta Pharmacologica Sinica, 2021).

B1: extracellular domain of human DPP4 (residues 39-766), K122D (domain or fragment)
chain: SRKTYTLTDYLKNTYRLKLYSLRWISDHEYLYKQENNILVFNAEYGNSSVFLENSTFDEFGHSINDYSISPDGQFILLEYNYVDQWRHSYTASYDIYDLNKRQLITEERIPNNTQWVTWSPVGHKLAYVWNNDIYVKIEPNLPSYRITWTGKEDIIYNGITDWVYEEEVFSAYSALWWSPNGTFLAYAQFNDTEVPLIEYSFYSDESLQYPKTVRVPYPKAGAVNPTVKFFVVNTDSLSSVTNATSIQITAPASMLIGDHYLCDVTWATQERISLQWLRRIQNYSVMDICDYDESSGRWNCLVARQHIEMSTTGWVGRFRPSEPHFTLDGNSFYKIISNEEGYRHICYFQIDKKDCTFITKGTWEVIGIEALTSDYLYYISNEYKGMPGGRNLYKIQLSDYTKVTCLSCELNPERCQYYSVSFSKEAKYYQLRCSGPGLPLYTLHSSVNDKGLRVLEDNSALDKMLQNVQMPSKKLDFIILNETKFWYQMILPPHFDKSKKYPLLLDVYAGPCSQKADTVFRLNWATYLASTENIIVASFDGRGSGYQGDKIMHAINRRLGTFEVEDQIEAARQFSKMGFVDNKRIAIWGWSYGGYVTSMVLGSGSGVFKCGIAVAPVSRWEYYDSVYTERYMGLPTPEDNLDHYRNSTVMSRAENFKQVEYLLIHGTADDNVHFQQSAQISKALVDVGVDFQAMWYTDEDHGIASSTAHQHIYTHMSHFIKQCFSLP
modifications: glycosylated (sites not given)
B2: extracellular domain of human DPP4 (residues 39-766), D243A (domain or fragment)
chain: SRKTYTLTDYLKNTYRLKLYSLRWISDHEYLYKQENNILVFNAEYGNSSVFLENSTFDEFGHSINDYSISPDGQFILLEYNYVKQWRHSYTASYDIYDLNKRQLITEERIPNNTQWVTWSPVGHKLAYVWNNDIYVKIEPNLPSYRITWTGKEDIIYNGITDWVYEEEVFSAYSALWWSPNGTFLAYAQFNDTEVPLIEYSFYSAESLQYPKTVRVPYPKAGAVNPTVKFFVVNTDSLSSVTNATSIQITAPASMLIGDHYLCDVTWATQERISLQWLRRIQNYSVMDICDYDESSGRWNCLVARQHIEMSTTGWVGRFRPSEPHFTLDGNSFYKIISNEEGYRHICYFQIDKKDCTFITKGTWEVIGIEALTSDYLYYISNEYKGMPGGRNLYKIQLSDYTKVTCLSCELNPERCQYYSVSFSKEAKYYQLRCSGPGLPLYTLHSSVNDKGLRVLEDNSALDKMLQNVQMPSKKLDFIILNETKFWYQMILPPHFDKSKKYPLLLDVYAGPCSQKADTVFRLNWATYLASTENIIVASFDGRGSGYQGDKIMHAINRRLGTFEVEDQIEAARQFSKMGFVDNKRIAIWGWSYGGYVTSMVLGSGSGVFKCGIAVAPVSRWEYYDSVYTERYMGLPTPEDNLDHYRNSTVMSRAENFKQVEYLLIHGTADDNVHFQQSAQISKALVDVGVDFQAMWYTDEDHGIASSTAHQHIYTHMSHFIKQCFSLP
modifications: glycosylated (sites not given)
B3: extracellular domain of human DPP4 (residues 39-766), P257A (domain or fragment)
chain: SRKTYTLTDYLKNTYRLKLYSLRWISDHEYLYKQENNILVFNAEYGNSSVFLENSTFDEFGHSINDYSISPDGQFILLEYNYVKQWRHSYTASYDIYDLNKRQLITEERIPNNTQWVTWSPVGHKLAYVWNNDIYVKIEPNLPSYRITWTGKEDIIYNGITDWVYEEEVFSAYSALWWSPNGTFLAYAQFNDTEVPLIEYSFYSDESLQYPKTVRVPYAKAGAVNPTVKFFVVNTDSLSSVTNATSIQITAPASMLIGDHYLCDVTWATQERISLQWLRRIQNYSVMDICDYDESSGRWNCLVARQHIEMSTTGWVGRFRPSEPHFTLDGNSFYKIISNEEGYRHICYFQIDKKDCTFITKGTWEVIGIEALTSDYLYYISNEYKGMPGGRNLYKIQLSDYTKVTCLSCELNPERCQYYSVSFSKEAKYYQLRCSGPGLPLYTLHSSVNDKGLRVLEDNSALDKMLQNVQMPSKKLDFIILNETKFWYQMILPPHFDKSKKYPLLLDVYAGPCSQKADTVFRLNWATYLASTENIIVASFDGRGSGYQGDKIMHAINRRLGTFEVEDQIEAARQFSKMGFVDNKRIAIWGWSYGGYVTSMVLGSGSGVFKCGIAVAPVSRWEYYDSVYTERYMGLPTPEDNLDHYRNSTVMSRAENFKQVEYLLIHGTADDNVHFQQSAQISKALVDVGVDFQAMWYTDEDHGIASSTAHQHIYTHMSHFIKQCFSLP
modifications: glycosylated (sites not given)

Target: the molecule itself
Assay: nonreducing SDS-PAGE
B1: binds. B2: binds. B3: binds.
